Assay results as given in patent US20260193342A1 (ZOETIS SERVICES, published 2026).

Columns and labels:
[1] = biological target: IL-31 (target protein of mAb1); experiment: cell-based or functional assay
[2] = biological target: T1, canine FcRn complex (FcRn-α subunit and β-microglobulin) (canine, UniProt A0A8I3PFR8 25-347, biotin on the BAP tag by BirA (Example 5 only)); experiment: SPR (Biacore), FcRn amine-coupled to CM5, IgG flowed, pH 6, 15 C
[3] = biological target: T1, canine FcRn complex (FcRn-α subunit and …); experiment: SPR (Biacore), biotinylated FcRn on SA chip, IgG flowed, pH 6, 15 C
[4] = biological target: T1, canine FcRn complex (FcRn-α subunit and …); experiment: SPR (Biacore), biotinylated FcRn on SA chip, IgG flowed, pH 7.4, 15 C
[5] = biological target: IL-31 (target protein of mAb1); experiment: SPR (Biacore T200), target amine-coupled to CM5, antibody flowed, 15 C, 1:1 model
[6] = biological target: NGF (target protein of mAb2); experiment: cell-based or functional assay
[7] = biological target: canine FcRn complex (FcRn-α subunit and β-microglobulin) (canine); experiment: SPR (Biacore), FcRn amine-coupled to CM5, IgG flowed, pH 6, 15 C
[8] = biological target: NGF (target protein of mAb2); experiment: SPR (Biacore T200), target amine-coupled to CM5, antibody flowed, 15 C, 1:1 model
[9] = biological target: canine FcRn complex (FcRn-α subunit and β-microglobulin) (canine); experiment: SPR (Biacore), FcRn amine-coupled to CM5, IgG flowed, pH 7.2, 15 C
[10] = biological target: T1, canine FcRn complex (FcRn-α subunit and …); experiment: SPR (Biacore), biotinylated FcRn on SA chip, IgG flowed, pH 6, 15 C; remark: listed apart in the source
[11] = biological target: T1, canine FcRn complex (FcRn-α subunit and …); experiment: SPR (Biacore), biotinylated FcRn on SA chip, IgG flowed, pH 7.4, 15 C; remark: listed apart in the source

T1 sequence (A0A8I3PFR8 entry or part of it, one chain of several): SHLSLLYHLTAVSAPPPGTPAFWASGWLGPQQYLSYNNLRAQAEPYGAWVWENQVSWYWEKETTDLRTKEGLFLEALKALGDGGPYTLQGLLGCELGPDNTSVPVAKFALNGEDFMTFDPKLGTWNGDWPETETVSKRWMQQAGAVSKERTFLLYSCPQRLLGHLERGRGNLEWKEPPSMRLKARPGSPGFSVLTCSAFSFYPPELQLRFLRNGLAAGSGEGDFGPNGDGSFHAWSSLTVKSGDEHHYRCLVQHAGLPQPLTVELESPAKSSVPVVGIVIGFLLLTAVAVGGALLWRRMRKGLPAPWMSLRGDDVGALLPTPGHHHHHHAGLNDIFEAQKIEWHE

B1: mAb1, caninized anti-IL31 antibody 34D03, canine IgGB (65), WT (antibody)
heavy: EVQLVESGGDLVKPGGSLRLSCVASGFTFSNYGMSWVRQAPGKGLQWVATISYGGSYTYYPDNIKGRFTISRDNAKNTLYLQMNSLRAEDTAMYYCVRGYGYDTMDYWGQGTLVTVSSASTTAPSVFPLAPSCGSTSGSTVALACLVSGYFPEPVTVSWNSGSLTSGVHTFPSVLQSSGLYSLSSMVTVPSSRWPSETFTCNVAHPASKTKVDKPVPKRENGRVPRPPDCPKCPAPEMLGGPSVFIFPPKPKDTLLIARTPEVTCVVVDLDPEDPEVQISWFVDGKQMQTAKTQPREEQFNGTYRVVSVLPIGHQDWLKGKQFTCKVNNKALPSPIERTISKARGQAHQPSVYVLPPSREELSKNTVSLTCLIKDFFPPDIDVEWQSNGQQEPESKYRTTPPQLDEDGSYFLYSKLSVDKSRWQRGDTFICAVMHEALHNHYTQESLSHSPGK
VL: EIVMTQSPASLSLSQEEKVTITCKASQSVSFAGTGLMHWYQQKPGQAPKLLIYRASNLEAGVPSRFSGSGSGTDFSFTISSLEPEDVAVYYCQQSREYPWTFGQGTKLEIK
notes: VH/VL: the caninized 34D03 entries of the listing; also called mAb1 WT; mAb1 Wild-Type
- IC50 (cell based potency assay) [1]: 1.1 nM
- Kd [2]: 15 to 24.4 nM
- Kd [3]: 19.9 nM
- Kd [4]: 18700 nM
- Kd [5]: 0.483 nM

B2: mAb2 of Tables 1-3, caninized anti-NGF antibody, canine IgGB (65), WT (antibody, part only; not given: Anti-NGF heavy and light variable domains, part only)
heavy, part: ASTTAPSVFPLAPSCGSTSGSTVALACLVSGYFPEPVTVSWNSGSLTSGVHTFPSVLQSSGLYSLSSMVTVPSSRWPSETFTCNVAHPASKTKVDKPVPKRENGRVPRPPDCPKCPAPEMLGGPSVFIFPPKPKDTLLIARTPEVTCVVVDLDPEDPEVQISWFVDGKQMQTAKTQPREEQFNGTYRVVSVLPIGHQDWLKGKQFTCKVNNKALPSPIERTISKARGQAHQPSVYVLPPSREELSKNTVSLTCLIKDFFPPDIDVEWQSNGQQEPESKYRTTPPQLDEDGSYFLYSKLSVDKSRWQRGDTFICAVMHEALHNHYTQESLSHSPGK
- IC50 (cell based potency assay) [6]: 23.7 nM
- Kd [7]: 57.2 nM
- Kd [8]: 0.0851 nM

B3: mAb2 of Tables 1-3, caninized anti-NGF antibody, canine IgGB (65), N434H (antibody, part only; not given: Anti-NGF heavy and light variable domains, part only)
heavy, part: ASTTAPSVFPLAPSCGSTSGSTVALACLVSGYFPEPVTVSWNSGSLTSGVHTFPSVLQSSGLYSLSSMVTVPSSRWPSETFTCNVAHPASKTKVDKPVPKRENGRVPRPPDCPKCPAPEMLGGPSVFIFPPKPKDTLLIARTPEVTCVVVDLDPEDPEVQISWFVDGKQMQTAKTQPREEQFNGTYRVVSVLPIGHQDWLKGKQFTCKVNNKALPSPIERTISKARGQAHQPSVYVLPPSREELSKNTVSLTCLIKDFFPPDIDVEWQSNGQQEPESKYRTTPPQLDEDGSYFLYSKLSVDKSRWQRGDTFICAVMHEALHHHYTQESLSHSPGK
- IC50 (cell based potency assay) [6]: 20.9 nM
- Kd [7]: 7.3 nM
- Kd [9]: 1300 nM
- Kd [8]: 0.0555 nM

B4: mAb1, caninized anti-IL31 antibody 34D03, canine IgGB, N434S (antibody)
heavy: EVQLVESGGDLVKPGGSLRLSCVASGFTFSNYGMSWVRQAPGKGLQWVATISYGGSYTYYPDNIKGRFTISRDNAKNTLYLQMNSLRAEDTAMYYCVRGYGYDTMDYWGQGTLVTVSSASTTAPSVFPLAPSCGSTSGSTVALACLVSGYFPEPVTVSWNSGSLTSGVHTFPSVLQSSGLYSLSSMVTVPSSRWPSETFTCNVAHPASKTKVDKPVPKRENGRVPRPPDCPKCPAPEMLGGPSVFIFPPKPKDTLLIARTPEVTCVVVDLDPEDPEVQISWFVDGKQMQTAKTQPREEQFNGTYRVVSVLPIGHQDWLKGKQFTCKVNNKALPSPIERTISKARGQAHQPSVYVLPPSREELSKNTVSLTCLIKDFFPPDIDVEWQSNGQQEPESKYRTTPPQLDEDGSYFLYSKLSVDKSRWQRGDTFICAVMHEALHSHYTQESLSHSPGK
light: EIVMTQSPASLSLSQEEKVTITCKASQSVSFAGTGLMHWYQQKPGQAPKLLIYRASNLEAGVPSRFSGSGSGTDFSFTISSLEPEDVAVYYCQQSREYPWTFGQGTKLEIKRNDAQPAVYLFQPSPDQLHTGSASVVCLLNSFYPKDINVKWKVDGVIQDTGIQESVTEQDKDSTYSLSSTLTMSSTEYLSHELYSCEITHKSLPSTLIKSFQRSEC
notes: VH/VL: the caninized 34D03 entries of the listing; also called ID No. 18; copies: 2 + 2
- Kd [10]: 20.2 nM
- Kd [11]: 6960 nM

B5: mAb1, caninized anti-IL31 antibody 34D03, canine IgGB, N434T (antibody)
heavy: EVQLVESGGDLVKPGGSLRLSCVASGFTFSNYGMSWVRQAPGKGLQWVATISYGGSYTYYPDNIKGRFTISRDNAKNTLYLQMNSLRAEDTAMYYCVRGYGYDTMDYWGQGTLVTVSSASTTAPSVFPLAPSCGSTSGSTVALACLVSGYFPEPVTVSWNSGSLTSGVHTFPSVLQSSGLYSLSSMVTVPSSRWPSETFTCNVAHPASKTKVDKPVPKRENGRVPRPPDCPKCPAPEMLGGPSVFIFPPKPKDTLLIARTPEVTCVVVDLDPEDPEVQISWFVDGKQMQTAKTQPREEQFNGTYRVVSVLPIGHQDWLKGKQFTCKVNNKALPSPIERTISKARGQAHQPSVYVLPPSREELSKNTVSLTCLIKDFFPPDIDVEWQSNGQQEPESKYRTTPPQLDEDGSYFLYSKLSVDKSRWQRGDTFICAVMHEALHTHYTQESLSHSPGK
light: EIVMTQSPASLSLSQEEKVTITCKASQSVSFAGTGLMHWYQQKPGQAPKLLIYRASNLEAGVPSRFSGSGSGTDFSFTISSLEPEDVAVYYCQQSREYPWTFGQGTKLEIKRNDAQPAVYLFQPSPDQLHTGSASVVCLLNSFYPKDINVKWKVDGVIQDTGIQESVTEQDKDSTYSLSSTLTMSSTEYLSHELYSCEITHKSLPSTLIKSFQRSEC
notes: VH/VL: the caninized 34D03 entries of the listing; also called ID No. 19; copies: 2 + 2
- Kd [10]: 34.2 nM
- Kd [11]: 554 nM

B6: mAb1, caninized anti-IL31 antibody 34D03, canine IgGB, N434V (antibody)
heavy: EVQLVESGGDLVKPGGSLRLSCVASGFTFSNYGMSWVRQAPGKGLQWVATISYGGSYTYYPDNIKGRFTISRDNAKNTLYLQMNSLRAEDTAMYYCVRGYGYDTMDYWGQGTLVTVSSASTTAPSVFPLAPSCGSTSGSTVALACLVSGYFPEPVTVSWNSGSLTSGVHTFPSVLQSSGLYSLSSMVTVPSSRWPSETFTCNVAHPASKTKVDKPVPKRENGRVPRPPDCPKCPAPEMLGGPSVFIFPPKPKDTLLIARTPEVTCVVVDLDPEDPEVQISWFVDGKQMQTAKTQPREEQFNGTYRVVSVLPIGHQDWLKGKQFTCKVNNKALPSPIERTISKARGQAHQPSVYVLPPSREELSKNTVSLTCLIKDFFPPDIDVEWQSNGQQEPESKYRTTPPQLDEDGSYFLYSKLSVDKSRWQRGDTFICAVMHEALHVHYTQESLSHSPGK
light: EIVMTQSPASLSLSQEEKVTITCKASQSVSFAGTGLMHWYQQKPGQAPKLLIYRASNLEAGVPSRFSGSGSGTDFSFTISSLEPEDVAVYYCQQSREYPWTFGQGTKLEIKRNDAQPAVYLFQPSPDQLHTGSASVVCLLNSFYPKDINVKWKVDGVIQDTGIQESVTEQDKDSTYSLSSTLTMSSTEYLSHELYSCEITHKSLPSTLIKSFQRSEC
notes: VH/VL: the caninized 34D03 entries of the listing; also called ID No. 20; copies: 2 + 2
- Kd [10]: 6.16 nM
- Kd [11]: 2750 nM

B7: mAb1, caninized anti-IL31 antibody 34D03, canine IgGB, N434W (antibody)
heavy: EVQLVESGGDLVKPGGSLRLSCVASGFTFSNYGMSWVRQAPGKGLQWVATISYGGSYTYYPDNIKGRFTISRDNAKNTLYLQMNSLRAEDTAMYYCVRGYGYDTMDYWGQGTLVTVSSASTTAPSVFPLAPSCGSTSGSTVALACLVSGYFPEPVTVSWNSGSLTSGVHTFPSVLQSSGLYSLSSMVTVPSSRWPSETFTCNVAHPASKTKVDKPVPKRENGRVPRPPDCPKCPAPEMLGGPSVFIFPPKPKDTLLIARTPEVTCVVVDLDPEDPEVQISWFVDGKQMQTAKTQPREEQFNGTYRVVSVLPIGHQDWLKGKQFTCKVNNKALPSPIERTISKARGQAHQPSVYVLPPSREELSKNTVSLTCLIKDFFPPDIDVEWQSNGQQEPESKYRTTPPQLDEDGSYFLYSKLSVDKSRWQRGDTFICAVMHEALHWHYTQESLSHSPGK
light: EIVMTQSPASLSLSQEEKVTITCKASQSVSFAGTGLMHWYQQKPGQAPKLLIYRASNLEAGVPSRFSGSGSGTDFSFTISSLEPEDVAVYYCQQSREYPWTFGQGTKLEIKRNDAQPAVYLFQPSPDQLHTGSASVVCLLNSFYPKDINVKWKVDGVIQDTGIQESVTEQDKDSTYSLSSTLTMSSTEYLSHELYSCEITHKSLPSTLIKSFQRSEC
notes: VH/VL: the caninized 34D03 entries of the listing; also called ID No. 21; copies: 2 + 2
- Kd [10]: 1.98 nM
- Kd [11]: 25300 nM
